According to US20210055300A1 (EISAI R AND D MANAGEMENT, published 2021):

T1: APOA4 in human serum (human, UniProt P06727 21-396)
T1 construct: Native protein in serum of healthy humans (monomer and dimer); also called human serum APOA4; APOA4 in the specimen
T1 sequence: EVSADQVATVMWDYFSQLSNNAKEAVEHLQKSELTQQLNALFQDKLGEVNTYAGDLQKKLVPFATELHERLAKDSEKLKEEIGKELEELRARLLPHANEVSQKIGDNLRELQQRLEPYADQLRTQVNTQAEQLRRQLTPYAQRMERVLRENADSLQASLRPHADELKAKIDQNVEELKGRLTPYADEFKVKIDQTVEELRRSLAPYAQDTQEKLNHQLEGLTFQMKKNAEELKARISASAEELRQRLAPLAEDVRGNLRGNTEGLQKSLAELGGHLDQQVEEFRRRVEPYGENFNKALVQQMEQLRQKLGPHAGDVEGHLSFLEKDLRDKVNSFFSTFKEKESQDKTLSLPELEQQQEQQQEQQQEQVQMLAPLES

T2: recombinant human APOA4 in which a histidine tag is bound to the C-terminal of human APOA4 (human, UniProt P06727 21-396)
T2 construct: Secreted from Expi293F cells and purified from the supernatant; Unfractionated mix of monomer and dimer; also called rhAPOA4-His; rhAPOA-His; not shown: C-terminal histidine tag
T2 sequence: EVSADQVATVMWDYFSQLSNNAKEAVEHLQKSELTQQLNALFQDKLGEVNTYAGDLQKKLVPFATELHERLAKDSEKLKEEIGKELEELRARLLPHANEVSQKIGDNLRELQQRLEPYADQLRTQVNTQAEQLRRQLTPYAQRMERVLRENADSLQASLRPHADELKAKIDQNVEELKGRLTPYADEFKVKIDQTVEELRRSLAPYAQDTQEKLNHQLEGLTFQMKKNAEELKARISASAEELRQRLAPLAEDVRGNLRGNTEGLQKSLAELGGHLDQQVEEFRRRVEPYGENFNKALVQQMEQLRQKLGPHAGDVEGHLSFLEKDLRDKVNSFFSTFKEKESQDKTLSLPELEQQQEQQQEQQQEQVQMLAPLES

T3: refolded rhAPOA4-His monomer (human, UniProt P06727 21-396)
T3 construct: not shown: C-terminal histidine tag
T3 sequence: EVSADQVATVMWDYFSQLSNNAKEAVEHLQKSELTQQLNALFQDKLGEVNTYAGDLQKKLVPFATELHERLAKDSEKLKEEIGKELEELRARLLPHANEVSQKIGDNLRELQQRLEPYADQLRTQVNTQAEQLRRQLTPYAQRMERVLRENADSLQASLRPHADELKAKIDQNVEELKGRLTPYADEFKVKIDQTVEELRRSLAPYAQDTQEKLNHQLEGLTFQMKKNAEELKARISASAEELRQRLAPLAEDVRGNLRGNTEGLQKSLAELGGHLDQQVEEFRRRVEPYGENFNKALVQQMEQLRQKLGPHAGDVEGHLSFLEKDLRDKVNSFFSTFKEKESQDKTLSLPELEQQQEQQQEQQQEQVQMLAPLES

T4: rhAPOA4-His monomer (human, UniProt P06727 21-396)
T4 construct: also called APOA4 monomer; monomer of rhAPOA4-His; not shown: C-terminal histidine tag
T4 sequence: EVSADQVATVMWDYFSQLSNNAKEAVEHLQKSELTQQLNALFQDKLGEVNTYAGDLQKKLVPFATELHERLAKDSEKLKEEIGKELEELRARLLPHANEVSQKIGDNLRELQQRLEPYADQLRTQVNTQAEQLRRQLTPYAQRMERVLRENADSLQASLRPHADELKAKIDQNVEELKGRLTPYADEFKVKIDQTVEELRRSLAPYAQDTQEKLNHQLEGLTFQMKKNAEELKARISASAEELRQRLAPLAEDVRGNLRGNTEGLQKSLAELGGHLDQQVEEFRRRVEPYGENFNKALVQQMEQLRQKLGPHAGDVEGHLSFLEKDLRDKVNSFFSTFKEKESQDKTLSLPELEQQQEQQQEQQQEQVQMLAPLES

T5: rhAPOA4-His dimer (human, UniProt P06727 21-396)
T5 construct: also called APOA4 dimer; dimer of rhAPOA4-His; not shown: C-terminal histidine tag
T5 sequence: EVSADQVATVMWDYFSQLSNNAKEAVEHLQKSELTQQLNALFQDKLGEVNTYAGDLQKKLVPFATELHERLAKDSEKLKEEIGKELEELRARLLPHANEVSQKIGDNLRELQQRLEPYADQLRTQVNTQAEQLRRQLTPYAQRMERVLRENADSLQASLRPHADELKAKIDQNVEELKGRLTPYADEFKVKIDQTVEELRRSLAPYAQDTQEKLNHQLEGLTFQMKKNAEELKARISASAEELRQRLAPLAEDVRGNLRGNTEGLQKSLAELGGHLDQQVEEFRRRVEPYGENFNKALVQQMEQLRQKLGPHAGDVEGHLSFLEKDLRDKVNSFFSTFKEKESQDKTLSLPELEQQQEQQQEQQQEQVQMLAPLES


Key:
APOA4 in human serum [1] = target: T1, APOA4 in human serum; test: sandwich ELISA, capture antibody
Method: (§1) Anti-human APOA monoclonal antibody No. 30 was adjusted to a concentration of 2 μg/mL with a 50 mM Tris buffer solution (pH 7.5). Antibody No. 30 solution was added to a Maxisorp cup (NUNC, manufactured by C8 Maxisorp) at 100 μL/well, the Maxisorp cup was put in a wet box and allowed to stand at 4° C. overnight, and antibody No. 30 was coated on the well. After removing antibody No. 30 solution by suction, a 50 mM Tris-buffered saline solution (pH 7.5) (blocking solution) containing 5% skim milk, 0.1% sodium azide, and 0.01% Tween 20 was added at 200 μL/well, and then the cup was left at room temperature for 2 hours or at 4° C. for 1 day or more (hereinafter, the prepared Maxisorp cup is referred to as “antibody No. 30 cup”). […] After stopping the reaction by injecting 100 μL/well of 0.5 M H₂SO₄, the absorbance was measured at a wavelength of 450 nm, and an APOA concentration was calculated using the rhAPOA4-His of a known concentration as a standard substance.

[2] = target: T2, recombinant human APOA4 in which a …; test: HDX-MS of rhAPOA4-His with and without antibody
Method: A solution in which about 10 μM of antibody No. 30 or antibody No. 33 were added to 10 μM of rhAPOA4-His and rhAPOA4-His and mixed therewith was diluted 20-fold with a PBS deuterium solution to start a deuteration reaction. As a control, a PBS solution was used.
After 1 minute, 10 minutes, 60 minutes, and 240 minutes at 23° C., an equivalent amount of 500 mM TCEP solution (pH 3 or less) containing cooled 2M guanidine hydrochloride was added to stop the reaction. After digesting the reaction solution with a pepsin column, peptide was separated and eluted by reversed-phase liquid chromatography using a C18 column, and LC-MS/MS measurement was performed with a mass spectrometer.
Each peptide derived from rhAPOA4-His was identified from the mass data, and the amount of deuterium exchange at each reaction time was calculated from the mass value. The peptide in which the amount of deuterium exchange was changed depending on the presence or absence of the antibody was extracted as an estimated epitope region.

[3] = target: T3, refolded rhAPOA4-His monomer; test: ELISA, antigen captured by anti-6xHis antibody, hybridoma supernatant
Method: Using the culture supernatant of the hybridoma obtained in (1), the reactivity to rhAPOA4-His was evaluated by ELISA as follows.
50 μL/well of a 50 mM Tris buffer (pH 7.5) containing 2 μg/mL of an anti-6×His rabbit polyclonal antibody (anti-6×His antibody, manufactured by Bethyl Laboratories) was added to a 96-well plate (manufactured by Nunc), and incubation was performed at 4° C. overnight. After removing the anti-6×His antibody solution, blocking was performed by adding 100 μL/well of 50 mM Tris-buffered saline solution (pH 7.5) containing 0.01% Tween 20 and 5% skim milk, and the plate was left at room temperature for 1 hour. After washing the well three times with Tris-buffered saline solution (pH 7.5) (washing solution) containing 0.01% Tween 20, rhAPOA4-His prepared in Example 1 or refolded rhAPOA4-His monomer prepared by the method described below was added at a concentration of 450 ng/mL (10 nM) by 50 μL/well, and incubation was performed at room temperature for 1 hour. The refolded rhAPOA4-His monomer was prepared by diluting rhAPOA4-His prepared in Example 1 two-fold with a 50 mM Tris-buffered saline solution (pH 7.5) containing 8 M urea (manufactured by Wako Pure Chemical Industries, Ltd.), leaving at room temperature for 30 minutes, and diluting 50-fold with a 50 mM Tris-buffered saline solution (pH 7.5) (reaction solution) containing 4% Block Ace (manufactured by DS Pharma Biomedical Corporation) and 0.01% Tween 20. After washing the well three times with the washing solution, the culture supernatant of the hybridoma was added to the well and incubation was performed at room temperature for 1 hour. After removing the added culture supernatant, the well was washed three times with the washing solution. A horseradish peroxidase-labeled anti-mouse IgG antibody (manufactured by Jackson ImmunoResearch Laboratories) appropriately diluted with the reaction solution was added at 50 μL/well, incubation was performed at room temperature for 1 hour, and then the well was washed 5 times with the washing solution. […]

rhAPOA4-His monomer = target: T4, rhAPOA4-His monomer; test: statement of the description; experiment is the ELISA of Example 4 (FIG. 1)
Method: (§2) 50 μL/well of a 50 mM Tris buffer (pH 7.5) containing 2 μg/mL of an anti-6×His rabbit polyclonal antibody (anti-6×His antibody, manufactured by Bethyl Laboratories) was added to a 96-well plate (manufactured by Nunc), and incubation was performed at 4° C. overnight. After removing the anti-6×His antibody solution, blocking was performed by adding 100 μL/well of 50 mM Tris-buffered saline solution (pH 7.5) containing 0.01% Tween 20 and 5% skim milk, and the plate was left at room temperature for 1 hour. After washing the well three times with a Tris-buffered saline solution (pH 7.5) (washing solution) containing 0.01% Tween 20, the rhAPOA4-His monomer or dimer prepared in Example 2 was diluted so as to be 450 ng/mL with a 50 mM Tris-buffered saline solution (pH 7.5) (reaction solution) containing 1% Block Ace (manufactured by DS Pharma Biomedical) and 0.01% Tween 20, and added thereto at 50 μL/well. After incubating at room temperature for 1 hour, the well was washed three times with the washing solution, and then the anti-human APOA4 monoclonal antibody obtained in Example 3 was diluted with the reaction solution so as to be 1 μg/mL and added thereto at 50 μL/well. After the incubation at room temperature for 1 hour, the well was washed three times with the washing solution. Subsequently, 50 μL/well of a horseradish peroxidase-labeled anti-mouse IgG antibody (manufactured by Jackson ImmunoResearch Laboratories) appropriately diluted with the reaction solution was added, incubation was performed at room temperature for 1 hour, and the well was washed 5 times with the washing solution. 50 μL/well of a TMB (3,3′,5,5′-tetramethylbenzidine) solution was added and incubation was performed at room temperature for 15 minutes. The reaction was stopped by adding 50 μL/well of 1N H₂SO₄ in the equivalent volume to that of the TMB solution, and the absorbance of 450 nm was measured using a microplate reader (manufactured by ThermoFisher Scientific).

rhAPOA4-His dimer = target: T5, rhAPOA4-His dimer; test: as above
Method: as §2

APOA4 in human serum [4] = target: T1, APOA4 in human serum; test: sandwich ELISA on diluted human serum, labeled detection antibody with No. 30 as capture
APOA4 in human serum [5] = target: T1, APOA4 in human serum; test: sandwich ELISA, labeled detection antibody
Method: as §1

binding result (APOA4 in human serum [1])	binding result [2]	binding result [3]	binding result (rhAPOA4-His monomer)	binding result (rhAPOA4-His dimer)	binding result (APOA4 in human serum [4])	binding result (APOA4 in human serum [5])	Binder
binds	binds	binds	binds	binds	–	–	anti-APOA4 monoclonal antibody No. 30 (antibody, IgG2b, V domains shown, Mouse hybridoma antibody purified with Protein A; Used as capture antibody coated on the well in the sandwich ELISAs; also called anti-human APOA4 monoclonal antibody No. 30; Anti-human APOA monoclonal antibody No. 30) VH: EVQLQQSGPELVKPGASVKISCKASGYSFIGYFMSWVKQSHGKSLEWIGRINPYNGDTFYNQKFKGKATLTVDKSSSTAHMELLSLTSEDSAVYYCGRGIIGFDYWGQGTTLTVSS VL: DIQMTQSPASLSASVGETVTITCRPSENIHSYLAWYHQKQGKSPQLLVYDATTLAEGVPSRFSGSGSGTQFFLKINSLQPEDFGSYYCQHHYVSPWTFGGGTKLEIK
–	–	binds	binds	binds	binds	–	anti-APOA4 monoclonal antibody No. 37 (antibody, IgG1, V domains shown, Mouse hybridoma antibody; also called anti-human APOA4 monoclonal antibody No. 37; HRP-labeled antibody No. 37) VH: QVQLQQSGAELVKPGASVKISCKASGYTFSNYWLNWVKLRPGKGLEWIGQIYPGDGDTNYNGKFKGKATLTADKSSSRAYMQLSSLTSEDSAVYFCARRNNYVMDYWGQGTSVTVSS VL: DIVMTQSHKFMSTSVGDRVSITCKASQDVGTSVAWYQQKLGQSPKLLINWASIRHTGVPDRFTGSGSGTDFSLTISNVQSEDLADHFCQQYSSYPFTFGSGTKLEIK
–	binds	binds	binds	binds	–	binds	anti-APOA4 monoclonal antibody No. 33 (antibody, IgG1, V domains shown, Mouse hybridoma antibody; unlabelled in HDX-MS; also called anti-human APOA4 monoclonal antibody No. 33; HRP-labeled antibody No. 33) VH: QVHLQQSGAELVRPGSSVKISCKASGYAFSIYWMNWVRQRPGQGLEWIGQIYPGDGDTTYNGKFKGKATLTADKSSNTAYMHLSSLTSEDSAVFFCARRGDYVYDYWGQGTTLTVSS VL: DIVMTQSHKLMSTSVGDRVSITCKASQDVGTAVAWYQQKPGQSPKLLIYWASTRHTGVPDRFTGSGSGTDFTLTIYNVQSEDLADYFCQQYSTYPFTFGSGTKLEIK
